Laboratory results: a protein production outcome set (Wang et al. 2014)

Test: label from the status in PepcDB records

Sequence | protein production
MAALSGVFVWDEERIQEEELQRSINEMKRLEEMSNIFQSSGVENYPPEPKSPAGGNEKSKDKEEPWEMVMDKKHFKLWRRPITGTHLYQYRVFGTYTDVTPRQFFNVQLDTEYRKKWDALVIKLEVIERDAVSGSEVLHWVTHFPYPMYSRDYVYVRRYSVDQENNVMVLVSRAVEHPSVPESPEFVRVRSYESQMVIRPHKSFDENGFDYLLTYSDNPQTVFPRYCVSWMVSSGMPDFLEKLHMATLKAKNMEIKVKDYISAKPLEMSSEAKATAPSPERKNEGSCGPARIEYA | failed
SALIAALSVSGLPSNRFTFEGFLPAKPTARRDRLTHLAHEPRTLIFYEASHRIAECLTDLATIFGSMRIAVVARELTKIFETVLDGTLATLQTQVANDENQRKGEFVIIVQGAADQ | failed
TDAFVFEGFLPTRGKRRLEKLANLKGEQRVVIFYEAPGRLQAALADMREVLGDRHVVVARELTKIHEEFVRGRVSFVAEHFAAVDVKGEVVILVAPAPAP | failed
MRHVSNGDPVRVVIVTDGAYGAPAESGDYAQTRRRESTRAAAILGYGAPEFWNLPDRGLEYGERLIQRVLTAMEDHAAELVYAPSWWEVHPDHRVLALAATEAVRRCTRPLRLAMYEVGVPLQPNALLDITDLAERKASAVACFSSQLAQQDYDEQIASLNRFRTYTLPRTVRAAEGYLVLAAEELRNRIPRMMTQKDRLAVRGETGDTAATPLVSVIIPSMDGPRLKEALDSVALQTYPRIEAVVIDAKGEGHTPLPRWCGRFPLRFIPSDISLSRGRAADVGLEHAEGDYLVFLGEDDVFQPGDVASLVAEAARKQGTGLCSHADRRMTVFSGGVVDGSPRTGKPGKPAFLPLHAVLFDRSLAELRCRFDGDANVPEDGDFWDQAMQHVASIHPGACRHGHGLPGGEAGRHTIVRLPPWTSPAPLPPGASLARTPHPTERDSLRRRIQRAGRRIYETPPRGLTDALVRTAYRIWARLSSDSMITNDGKGTLEHHHHHH | failed
MKEICMLLVAVILWGTAIAPTKWALESIQPFTLLFIRLFFAGGICMIFSFKELQKSVVHKKVPWKRMSLLAFTGVAGYFMFTSYGISLTSGLHVSIIDAALPLVTILFSALFLKEEIRLNYWIGIILGAIGVLFITIPSKSANQEVSLIGDILILLSTFLFAFYTVLLKRPKQEQYLSNEVFTTLTLIIGAVILLPFALVEIFYYGLPKVETWKTVLSVIYLVIGATILAYWFWNKALERVSASVSGLYLNALPLISIITSIILLNESLTWRVIMGASLVLIGVGWADKQKLCNLLKGNKVENRDC | failed
MIKLIKNEIIKMLFKKKVILIMAIILIEACAFAYGQNNKYQRTVRSYVNSNSSSYNWRPLINQQIQDLQSKLKYRTVKKSEEKSINIQMEQYRYYLKNNINPITPTAGNFTSNIMAQSVTLLLPLLVIILASDIVSSEFSSRTIKVLLTRAVPRWKILLSKYIALIIMSAFVVFLTTIIPLIVSLVVFKRTGFGEPVITGYKVIAGKVDASNVVGIYQWYYILIMSALSFFISIVVGSISFMISIFVKSIGASIGIMMSALIGGNILSVFLDDIEAAKYFFVVNLNLPQYLTGKMRIVSGMNFDFSIMVLLIWSMASIVISFYVFNKKDVLV | failed
MEPQKESNQNYLPYPPHPQQDHDEIDLRELFKALWEGKWIVIATTFVIAVSAVLYALSLPNIYKADALLAPAESSNGGGLSKMAGQLGGLAALAGVNLGASESSQTDLAVQVMRSRQFINTFINKHDLLVPLMAGKDWDLSNNKLILDEELYNPNTGEWLRDAKGLRGATPTAQEAFEVFSKEVLSINQDKESGLYTVSMKNYSPYIAQQWVNWLIEDINKAMRERTIAETSQNLAYLNTQLQKTAVTDMQSTFYKLIEEQTKSLMLAEVQEEFVFKVVDPAVVPELKDSPKRVLICVLGILLGVMLGVAIVLIRIVFRKEDTENLEPRT | failed
MDTAKTKPFDEMFLQDEVIRPIYAEYAAWLQDVPHQQLESKRQEAELLFRRVGITFNVYGEDAGAERLIPFDVVPRILSASEWARLSDGAIQRVKALNMFLHDVYHDQEIIKAGIVPSSILANAQYRPEMFGVDVPGGVYAHIAGVDLVRTGENDFYVLEDNLRTPSGVSYMLENRKMMMRLFPELFRRYPVAPVEHYPQVLLNNLRAVAQAGVHEPTVVLLTPGAYNSAYFEHAFIAQQMGIELVEGQDLFVRNNAVYMRTTEGPKRVDVIYRRIDDDFIDPLSFRPDSMLGVPGLLSVYRNGGVTLANAVGTGVADDKDTYIYVPEMIRFYLGEEPILSNVPTYQLSKADDLKYVLDNLAELVVKEVQGSGGYGMLVGPAASKQELEDFRQRILANPANYIAQPTLALSTCPTLVETGIAPRHVDLRPFVLSGKTVSLVPGALCRVALREGSLVVNSSQGGGTKDTWILKD | not failed
MKRVAIFASGSGTNAEAIIQSQKAGQLPCEVALLITDKPGAKVVERVKVHEIPVCALDPKTYPSKEAYEIEVVQQLKEKQIDFVVLAGYMRLVGPTLLGAYEGRIVNIHPSLLPAFPGLHAIEQAIRANVKVTGVTIHYVDEGMDTGPIIAQEAVSIEEEDTLETLTTKIQAVEHRLYPATLHKLLSK | not failed
MQIPHGELRTLTYHSNALKSERQMYVWTPPGYSESSKPLPVLYFYHGFGDTGASAVVQGRIPQMMDNLLAEKKIEPMLVVIPDTETDVPGIIPEEYPPQERRKVFYPRNALAADRELIHDIIPAIGKRFNVRQDANGRALAGLSQGGYQALVSGMSHLDHFGWLATFSGVTTETVPNMAVAAQLERPEQINQQLKNLTVVIGETDNITGKDIAGLKTMLEQKNIRFDYTHYPNLGHEMDVWRPAYSEFVQKLFKLEHHHHHH | not failed
MHFHLRNLRLHMETNGTPQSPAGDWRSYERMLLPPIQDLHKLGVYEEHGGYDRLRRVLEDDAFEPSDVTDEVKASGLTGRGGAGFPTGIKWTFMPEPDERPRFIGVNADESEPGTFKDRQVMEYNPHLMLEGILLAGYALHIDTAYVYIRGEYTDWIVHLKEQLENAYEAGYVGENIMGSDFTMDIVLHKGAGAYICGEETSLMESLEGKRGYPRYKPPFPAQSGIFGSPTTINNAETLAHVPLIVEQGGEAYSNIGAGDMPGPALYGMSGHVKNPGVYEFPTGMLLTDMIYDVCGGMARDKDLKAVVPGGSSVPPVPADQIDGISMNDESLGEVGSRTGTFCPLVLDEETDMVSFLRRVAHFYQDETCGQCTPCREGTSWLEKILARIDEGEGRMRDIDLLLELCDNMDGGRTICAFADGAVGPVRATVKRFREEFAAKCQASVHPVSTEVSAGAGSAVAATE | failed
MKEFRKILEDKAFFFTTLYILISFLVFKIFPDVFAVIVLMVFFTLLLDPVIRFLEKLKFGKYFSRVAALLLFFFVMVYSLYMIIPPVFNEFGSFIEFMTKVFESKIWKDYIKSPELMPVFDKIMNFLEPKLTDFLNYVFSLVTTNFVSVTTIIVFTLFGLGYTVFYIREIASFFVLIYPKSVRAEAREFFRDVYASMGRYIRVIFINAVIIGLSYWIVFEAFNLKYSAIISLWAFVTNFIPIVGVVLEYIPVLLFSLTLGVKGVLLIALFAILIHAVAFVVFIQLMKGLEKLNPVYIILSILFFGKLFGLFGSFVGVPLALFFKVFWRKFLRPLFEAG | failed
MDRLSYAIGDKAVLNNIRVQFQPGSVTALLGPNGAGKSTLLKALCQEIPSAQGSIKLGHCQLVDWPRAELAKSLAVLPQHASLTFPFTVDEVVAMGLYPLTLSQKEGQQLVTKWLAEVGVLHLARRSYPTLSGGEKQRVQLARVLTQLSQSPFPPILLLDEPTSALDLAQQHKVLALAKNLAHKHAYTVIVVLHDLNQAARYSDRVIVLKQGEIVSEGTPNDALSIDIIRQVWDYEPEFIPAPQGDYPLIF | failed
MRSRDFSSWIWGDALSLLQQADRLHRQLLRTGPAQAPCWEPPVDMIETESAVLIYVALPGVAAGDVAVRFDPDGISISGVRPLPALRNARIHGLEIPYGRFQRRIRLPLHALEPEAPTLADGCLTLTLKKLREAP | failed
MALVSADSRIAELLTELHQLIKQTQEERSRSEHNLVNIQKTHERMQTENKISPYYRTKLRGLYTTAKADAEAECNILRKALDKIAEIKSLLEERRIAAKIAGLYNDSEPPRKTMRRGVLMTLLQQSAMTLPLWIGKPGDKPPPLCGAIPASGDYVARPGDKVAARVKAVDGDEQWILAEVVSYSHATNKYEVDDIDEEGKERHTLSRRRVIPLPQWKANPETDPEALFQKEQLVLALYPQTTCFYRALIHAPPQRPQDDYSVLFEDTSYADGYSPPLNVAQRYVVACKEPKKK | failed
